The record followed here is patent US20250101107A1 (REPERTOIRE IMMUNE MEDICINES, published 2025).

To fix the notation:
B1: 02-Parent-VH-M39L (antibody, V domains shown)
VH: EVQLQQSGPELVKPGASLKISCKASGYTFTDFTLHWVKQSHGKSLEWIGLVNPNNGGNIYNQNFKGKATLTVDTSSSTAYMELRSLTSEDSSVYYCGRVPLYTSHGMDYWGQGTSVTVSS
VL: DIVLTQSPAFLAVSLGQRATISCRASESVDSYDINSMHWYQQKPGQPPKLLIYRASHLQSGIPARFSGSGSRTDFTLTINFVEADDVATYYCQQSNEDPLTFGAGTKLELK
notes: also called murine 02A01 VH-M39L
B2: humanized 02A01-VH2-VK2 (antibody, V domains shown)
VH: EVQLVQSGAEVKKPGATLKISCKASGYTFTDFTMHWVQQAPGKGLEWIGLVNPNNGGNIYNQNFKGRATLTVDTSTSTAYMELSSLRSEDTSVYYCGRVPLYTSHGMDYWGQGTLVTVSS
VL: EIVLTQSPATLSVSPGERATISCRASESVDSYDINSMHWYQQKPGQAPRLLIYRASHLQSGIPARFSGSGSRTDFTLTISSVEPEDFATYYCQQSNEDPLTFGQGTKLEIK
B3: humanized 02A01-VH2-VK1 (antibody, V domains shown)
VH: EVQLVQSGAEVKKPGATLKISCKASGYTFTDFTMHWVQQAPGKGLEWIGLVNPNNGGNIYNQNFKGRATLTVDTSTSTAYMELSSLRSEDTSVYYCGRVPLYTSHGMDYWGQGTLVTVSS
VL: EIVLTQSPATLSVSPGERATISCRASESVDSYDINSMHWYQQKPGQPPRLLIYRASHLQSGIPARFSGSGSRTDFTLTISSVEPEDFATYYCQQSNEDPLTFGQGTKLEIK
B4: humanized 02A01-VH1-VK2 (antibody, V domains shown)
VH: EVQLVQSGPEVVKPGATLKISCKASGYTFTDFTMHWVKQAPGKSLEWIGLVNPNNGGNIYNQNFKGRATLTVDTSTSTAYMELSSLRSEDTSVYYCGRVPLYTSHGMDYWGQGTLVTVSS
VL: EIVLTQSPATLSVSPGERATISCRASESVDSYDINSMHWYQQKPGQAPRLLIYRASHLQSGIPARFSGSGSRTDFTLTISSVEPEDFATYYCQQSNEDPLTFGQGTKLEIK
B5: humanized 02A01-VH3-VK2 (antibody, V domains shown)
VH: EVQLVQSGAEVKKPGATLKISCKASGYTFTDFTMHWVQQAPGKGLEWIGLVNPNNGGNIYAEKFQGRATLTVDTSTSTAYMELSSLRSEDTSVYYCGRVPLYTSHGMDYWGQGTLVTVSS
VL: EIVLTQSPATLSVSPGERATISCRASESVDSYDINSMHWYQQKPGQAPRLLIYRASHLQSGIPARFSGSGSRTDFTLTISSVEPEDFATYYCQQSNEDPLTFGQGTKLEIK
B6: humanized 02A01-VH3-VK1 (antibody, V domains shown)
VH: EVQLVQSGAEVKKPGATLKISCKASGYTFTDFTMHWVQQAPGKGLEWIGLVNPNNGGNIYAEKFQGRATLTVDTSTSTAYMELSSLRSEDTSVYYCGRVPLYTSHGMDYWGQGTLVTVSS
VL: EIVLTQSPATLSVSPGERATISCRASESVDSYDINSMHWYQQKPGQPPRLLIYRASHLQSGIPARFSGSGSRTDFTLTISSVEPEDFATYYCQQSNEDPLTFGQGTKLEIK
B7: humanized 02A01-VH1-VK3 (antibody, V domains shown)
VH: EVQLVQSGPEVVKPGATLKISCKASGYTFTDFTMHWVKQAPGKSLEWIGLVNPNNGGNIYNQNFKGRATLTVDTSTSTAYMELSSLRSEDTSVYYCGRVPLYTSHGMDYWGQGTLVTVSS
VL: EIVLTQSPATLSLSPGERATISCRASESVDSYDINSMHWYQQKPGQAPRLLIYRASHLQSGIPARFSGSGSRTDFTLTISSLEPEDFATYYCQQSNEDPLTFGQGTKLEIK
B8: humanized 02A01-VH1-VK1 (antibody, V domains shown)
VH: EVQLVQSGPEVVKPGATLKISCKASGYTFTDFTMHWVKQAPGKSLEWIGLVNPNNGGNIYNQNFKGRATLTVDTSTSTAYMELSSLRSEDTSVYYCGRVPLYTSHGMDYWGQGTLVTVSS
VL: EIVLTQSPATLSVSPGERATISCRASESVDSYDINSMHWYQQKPGQPPRLLIYRASHLQSGIPARFSGSGSRTDFTLTISSVEPEDFATYYCQQSNEDPLTFGQGTKLEIK
B9: 02A01-IgG-IL12 (LC) (other, not shown: a dimerising Fc or GST)
heavy: EVQLQQSGPELVKPGASLKISCKASGYTFTDFTMHWVKQSHGKSLEWIGLVNPNNGGNIYNQNFKGKATLTVDTSSSTAYMELRSLTSEDSSVYYCGRVPLYTSHGMDYWGQGTSVTVSS
light: DIVLTQSPAFLAVSLGQRATISCRASESVDSYDINSMHWYQQKPGQPPKLLIYRASHLQSGIPARFSGSGSRTDFTLTINFVEADDVATYYCQQSNEDPLTFGAGTKLELK
B10: 03A01-IgG-IL12 (LC) (other, not shown: a dimerising Fc or GST)
heavy: DVQFQESGPGLVKPSQSLSLTCTVTGYSITSDFAWNWIRQFPGNELEWMGYISYSGDTNYNPSLRSRISITRDTSKNQFFLQLDSVTTEDTATYYCTIRGYYTDSAFVFWGQGTLVTVSA
light: DIQMTQSSSYLSVSLGGRVTITCKASDHINNWLAWYQQKPGNAPRLLISGATSLETGVPSRFTGSGSGLDYTLSITSLQTEDVATYYCQQYWNSPFTFGSGTKLEIK
B11: humanized 03A01-VH1-VK1 (antibody, V domains shown)
VH: EVQFQESGPGLVKPSQTLSLTCTVTGYSITSDFAWNWIRQPPGKELEWMGYISYSGDTNYNPSLRSRITISRDTSKNQFSLKLSSVTAADTATYYCTIRGYYTDSAFVFWGQGTLVTVSS
VL: DIQMTQSSSTLSVSLGDRVTITCKASDHINNWLAWYQQKPGKAPRLLISGATSLETGVPSRFSGSGSGLEYTLTISSLQPDDFATYYCQQYWNSPFTFGQGTKLEIK
B12: humanized 03A01-VH4-VK1 (antibody, V domains shown)
VH: EVQFQESGPGLVKPSQTLSLTCTVSGYSITSDFAWNWIRQPPGKGLEWIGYISYSGDTYYNPSLKSRVTISRDTSKNQFSLKLSSVTAADTAVYYCTIRGYYTDSAFVFWGQGTLVTVSS
VL: DIQMTQSSSTLSVSLGDRVTITCKASDHINNWLAWYQQKPGKAPRLLISGATSLETGVPSRFSGSGSGLEYTLTISSLQPDDFATYYCQQYWNSPFTFGQGTKLEIK
B13: humanized 03A01-VH2-VK1 (antibody, V domains shown)
VH: EVQFQESGPGLVKPSQTLSLTCTVSGYSITSDFAWNWIRQPPGKGLEWMGYISYSGDTNYNPSLRSRITISRDTSKNQFSLKLSSVTAADTAVYYCTIRGYYTDSAFVFWGQGTLVTVSS
VL: DIQMTQSSSTLSVSLGDRVTITCKASDHINNWLAWYQQKPGKAPRLLISGATSLETGVPSRFSGSGSGLEYTLTISSLQPDDFATYYCQQYWNSPFTFGQGTKLEIK
B14: humanized 03A01-VH4-VK2 (antibody, V domains shown)
VH: EVQFQESGPGLVKPSQTLSLTCTVSGYSITSDFAWNWIRQPPGKGLEWIGYISYSGDTYYNPSLKSRVTISRDTSKNQFSLKLSSVTAADTAVYYCTIRGYYTDSAFVFWGQGTLVTVSS
VL: DIQMTQSPSTLSVSVGDRVTITCKASDHINNWLAWYQQKPGKAPKLLISGATSLETGVPSRFSGSGSGLEYTLTISSLQPDDFATYYCQQYWNSPFTFGQGTKLEIK
B15: humanized 03A01-VH4-VK3 (antibody, V domains shown)
VH: EVQFQESGPGLVKPSQTLSLTCTVSGYSITSDFAWNWIRQPPGKGLEWIGYISYSGDTYYNPSLKSRVTISRDTSKNQFSLKLSSVTAADTAVYYCTIRGYYTDSAFVFWGQGTLVTVSS
VL: DIQMTQSPSTLSASVGDRVTITCKASDHINNWLAWYQQKPGKAPKLLISGATSLETGVPSRFSGSGSGLEYTLTISSLQPDDFATYYCQQYWNSPFTFGQGTKLEIK
B16: 03-Parent-VH-D64E (antibody, V domains shown)
VH: DVQFQESGPGLVKPSQSLSLTCTVTGYSITSDFAWNWIRQFPGNELEWMGYISYSGETNYNPSLRSRISITRDTSKNQFFLQLDSVTTEDTATYYCTIRGYYTDSAFVFWGQGTLVTVSA
VL: DIQMTQSSSYLSVSLGGRVTITCKASDHINNWLAWYQQKPGNAPRLLISGATSLETGVPSRFTGSGSGLDYTLSITSLQTEDVATYYCQQYWNSPFTFGSGTKLEIK
notes: also called 03A01 VH-D64E

The target of one test is T1, human CD8 on human T cells (human, UniProt P01732 22-235; P10966 22-210).
T1 construct: whole, on cells; Target as carried by human CD3+/CD8+ T cells, PBMCs or MART-1-specific T cells; the mice were immunized with human CD8a; also called hCD8; CD8 expressed on the cell surface
T1 sequence (P01732 22-235, chain 1 of 2): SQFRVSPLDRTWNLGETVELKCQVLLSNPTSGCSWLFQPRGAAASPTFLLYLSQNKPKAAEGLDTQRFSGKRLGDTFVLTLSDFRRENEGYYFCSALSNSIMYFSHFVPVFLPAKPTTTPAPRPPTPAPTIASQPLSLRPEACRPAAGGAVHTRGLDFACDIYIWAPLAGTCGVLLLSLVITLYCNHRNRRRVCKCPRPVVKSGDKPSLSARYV
T1 sequence (P10966 22-210, chain 2 of 2): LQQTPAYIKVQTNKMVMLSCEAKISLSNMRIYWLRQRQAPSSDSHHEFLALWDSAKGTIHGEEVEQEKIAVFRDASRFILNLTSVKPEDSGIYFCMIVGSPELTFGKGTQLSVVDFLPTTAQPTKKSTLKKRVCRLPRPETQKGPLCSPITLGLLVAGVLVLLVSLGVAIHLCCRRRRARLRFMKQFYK
The experiment in a line: flow cytometry, 0.2 nM antibody on human CD8+ T cells, anti-human IgG detection (MFI AF647). On the procedure: The 24 humanized 02A01-derived anti-CD8 antibodies (excluding 02A01-VK3(D30E/N35Q)) were screened for their ability to bind human CD8 by evaluating binding to CD8+ T cells. The non-humanized parent (“02-Parent”) and the non-humanized parent comprising a heavy chain M39L liability mutation (“02-Parent-VH-M39L”) were used as controls. […] Cells were washed with 1×phosphate buffered saline (PBS) containing 1 mg/mL bovine serum albumin (PBS/BSA) and then stained with a 1:100 dilution of DyLight650-conjugated anti-human IgG H+L polyclonal antibody (ThermoFisher cat. no. Sa5-10129) in PBS/BSA. Following a 20-30 min incubation at 4° C., the cells were washed once with PBS/BSA, and then resuspended in PBS/BSA for analysis on a FACSCelesta using Diva software (BD Biosciences). The resulting data were analyzed using FlowJo. Data were quantified and reported as Max fluorescence intensity (MFI) of human IgG-Fc. […] Complete replacement of the HCDR1 (antibodies comprising VH5) eliminated binding to the CD8+ T cells.
Regarding B1, the binding result is “binds”.
Turning to B2, the binding result is “binds”.
Same read-out and setting: the result for B3 reads “binds”.
On to B4, for which the binding result is listed as “binds”.
Same read-out and setting: the entry for B5 is “binds”; for B6 it is “binds”; for B7 it is “binds”.
The same measure, in the same setting: the result for B8 reads “binds”.

For a further test, the target named is T1, human CD8 on human T cells. The test is described as follows: cell-based or functional assay.
As to B9, the “EC50 for stimulation of pSTAT4 signaling, CD8+ T cells in pre-activated human PBMCs” value was found to be 2.72 pM.
Still for that read-out and setting: the figure for B10 is 14.7 pM.

In a further test the target is T1, human CD8 on human T cells. The test is described as follows: flow cytometry, 5 nM antibody on human CD8+ T cells, anti-human IgG detection (MFI AF647). On the procedure: The 16 above-referenced humanized 03A01-derived anti-CD8 antibodies were screened for their ability to bind human CD8 by evaluating binding to CD8⁺ T cells. The non-humanized parent (“03-Parent”) and the non-humanized parent comprising a heavy chain D64E liability mutation (“03-Parent-VH-D64E”) were used as controls. […] Cells were washed with 1 X phosphate buffered saline (PBS) containing 1 mg/mL bovine serum albumin (PBS/BSA) and then stained with a 1:100 dilution of DyLight650-conjugated anti-human IgG H+L polyclonal antibody (ThermoFisher cat. no. Sa5-10129) in PBS/BSA. Following a 20-30 min incubation at 4° C., the cells were washed once with PBS/BSA, and then resuspended in PBS/BSA for analysis on a FACSCelesta using Diva software (BD Biosciences). The resulting data were analyzed using FlowJo. Data were quantified and reported as Max fluorescence intensity (MFI) of human IgG-Fc. […] Complete replacement of the LCDR1 (antibodies comprising VK4) eliminated binding to the CD8+ T cells.
A general note: Flow cytometry measures light scatter and fluorescence of single cells or particles in a stream.
Take B11: the binding result is recorded as “binds”.
On to B12, for which the binding result is “binds”.
Same read-out and setting: the result for B13 reads “binds”; that for B14, “binds”.
On the same count and under the same terms, the entry for B15 is “binds”; for B16 it is “binds”.
